Laboratory results reported in the nanobody polyreactivity screen of Harvey et al. (2022).

Assay: yeast display, Sf9 membrane polyspecificity reagent, FACS + sequencing; frameworks hold sequencing errors
Outline: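 A synthetic nanobody library was expressed on Saccharomyces cerevisiae BJ5465 by galactose induction for 36–48 hours. The library was stained for 1 hour at 4 °C with 10% biotinylated, detergent-solubilized Sf9 membrane reagent and enriched with streptavidin microbeads before FACS. Low and high (top ~1%) gates were set on anti-HA fluorescence for expression and streptavidin fluorescence for reagent binding, and each polyreactivity label reflects the gate of origin.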

For “QVQLVESGGGLVQAGGSLRLSCAASGSIFEGYAMGWYRQAPGKERELVADITSGGSTYYADSVKGRFTISRDNAKNTVYLQMNSLKPEDNAVYYCNRDYHWIELVYPDDRREYDYWGQGTQVTVSS”, the “polyreactivity (PSR sort gate)” value was “low polyreactivity”.

In the case of “QVQLVESGGGLVQAGGSLRLSCAASGSIFEGYVMGWYRQAPGKERELVAGISRGSRTNYADSVKGRFTISRDNAKNTVYLQMNSLKPEDTAVYYCAAEYWGVYRGFVSSFDYWGQGTQVTVSS”, the “polyreactivity (PSR sort gate)” value is reported as “high polyreactivity”.

With “QVQLVESGGGLVQAGGSLRLSCAASGSIFEIYAMGWYRQAPGKERELVAAISWSGGRTYYADSVKGRFTISRDNAKNTVYLQMNSLKPEDTAVYYCNAGQWRYPGLYYYWGQVTQVTVSS” the “polyreactivity (PSR sort gate)” value was “high polyreactivity”.

In the case of “QVQLVESGGGLVQAGGSLRLSCAASGSIFELNAMGWYRQAPGKERELVAAITSSGSSTYYADSVKGRFTISRDNAKNTVYLQMNSLKPEDTAVYYGFRPHDYWGQGTQVTVSS”, the “polyreactivity (PSR sort gate)” value is reported as “low polyreactivity”.

With “QVQLVESGGGLVQAGGSLRLSCAASGSIFEPNAKGWYRQAPGKERELVAVINYSGGSTYYADSVKGRFTISRDNAKNTVYLQMNSLKPEDTAVYYCAASHYHYRYGTPQPEYNYWGQGTQVTVSS” the “polyreactivity (PSR sort gate)” value was “low polyreactivity”.

For “QVQLVESGGGLVQAGGSLRLSCAASGSIFEPNAMGWYRQAPGKERELVAAISSGGSTYYADSVKGRFTISRDNAKNTVYLQMNSLKPEDTAVYYCAAYYHGYYSWGQGTQVTVSS”, the “polyreactivity (PSR sort gate)” value was “high polyreactivity”.

In the case of “QVQLVESGGGLVQAGGSLRLSCAASGSIFEPYTMGWYRQAPGKERELVAAITGSGGSTFYADSVKGRFTISRDNAKNTVYLQMNSLKPEDTAVYYCNAFAYPYTDVDYWGQGTQVTVSS”, the “polyreactivity (PSR sort gate)” value is reported as “low polyreactivity”.

For “QVQLVESGGGLVQAGGSLRLSCAASGSIFEPYVMGWYRQAPGKERELVAAIRQTGGSTYYADSVKGRFTISRDNAKNTVYLQMNSLKPEDTAVYYCAAVYLYYSRSDLYDYWGQGTQVTVSS”, the “polyreactivity (PSR sort gate)” value was “low polyreactivity”.

For “QVQLVESGGGLVQAGGSLRLSCAASGSIFERYAMGWYRQAPGKERELVATISKSGDSTYYADSVKGRFTISRDNAKNTVYLQMNSQKPEDTAVYYCAADGWSETSDATFYYWGQGTQVTVSS”, the “polyreactivity (PSR sort gate)” value was “low polyreactivity”.

With “QVQLVESGGGLVQAGGSLRLSCAASGSIFESNDMGWYRQAPGKERELVAAYADSVKGRFTISRDNAKNTVYLQMNSLKPEDTAVYYCAKSLSLYVVPLYEYWGQGTQVTVSS” the “polyreactivity (PSR sort gate)” value was “low polyreactivity”.

For “QVQLVESGGGLVQAGGSLRLSCAASGSIFESYAMGWYRQAPGKERELVADITYDGGITYYADSVKGRFTISRDNAKNTVYLQMNSLKPEDTADYYCNADSVQYTPPESDYWGQGTQVTVSS”, the “polyreactivity (PSR sort gate)” value was “low polyreactivity”.

With “QVQLVESGGGLVQAGGSLRLSCAASGSIFESYAMGWYRQAPGKERELVADITYDGGITYYADSVKGRFTISRDNAKNTVYLQMNSLKPEDTAVYYCATEYRYWQSDYSTYFPYDYWGQGTQVTVSS” the “polyreactivity (PSR sort gate)” value was “low polyreactivity”.

With “QVQLVESGGGLVQAGGSLRLSCAASGSIFETYDMGWYRQAPGKERELVAAITLSGGSTYYADSVKGRFTISRDNAKNTVYLQMNSLKPEDTAVYYCAADDSGVKVWEGDYWGQGTQVTVSS” the “polyreactivity (PSR sort gate)” value was “low polyreactivity”.

In the case of “QVQLVESGGGLVQAGGSLRLSCAASGSIFETYVMGWYRQAPGKERELVAAINSGGSTNYADSVKGRFTISRDNAKNTVYLQMNSLKPEDTAVYYCAAEWRGDRYRLYVVSWWYDYWGQGTQVTVSS”, the “polyreactivity (PSR sort gate)” value is reported as “low polyreactivity”.

With “QVQLVESGGGLVQAGGSLRLSCAASGSIFEVNAMGWYRQAPGKERELVAAISCSGGSTYYADSVKGRFTISRDNAKNTVYLQMNSLKPEDTAVYYCAADWRQGLWYGYYYWGQGTQVTVSS” the “polyreactivity (PSR sort gate)” value was “low polyreactivity”.

For “QVQLVESGGGLVQAGGSLRLSCAASGSIFEWYAMGWYRQAPGKERELVADITNNGGSTYYADSVKGRFTISRDNAKNTVYLQMNSLKPEDTAVYYCAADYFDQVPDYYYASEYGYWGQGTQVTVSS”, the “polyreactivity (PSR sort gate)” value was “low polyreactivity”.

With “QVQLVESGGGLVQAGGSLRLSCAASGSIFEYNTMGWYRQAPGKERELVATISWSGDSTYYADSVKGRFTISRDNAKNTVYLQMNSLKPEDTAVYYCAAQRGAPVDGKSDYWGQGTQVIVSS” the “polyreactivity (PSR sort gate)” value was “low polyreactivity”.

With “QVQLVESGGGLVQAGGSLRLSCAASGSIFEYYAMGWYRQAPGKERELVAAISSGGPTYYADSVKGRFTISRDNAKNTVYLQMNSLKPEDTAVYYCNADLWYPDYDYWGQGTQLTVSS” the “polyreactivity (PSR sort gate)” value was “low polyreactivity”.

For “QVQLVESGGGLVQAGGSLRLSCAASGSIFEYYTMGWYIPAPGKERECVAAITFTGDSTYYADSVKGRFTISRDNAKNTVFLQMNSLKPEDTAVYYCNADSVTYDGEYDYWGQGTQVTVSS”, the “polyreactivity (PSR sort gate)” value was “low polyreactivity”.

In the case of “QVQLVESGGGLVQAGGSLRLSCAASGSIFFARYAMGWYRQAPGKERELVAAITRATSTTYADSVKGRFTISRDNAKNTVYLQMNSLKPEDTAVYYCAATKIGGGSFRPYYYWGQGTQVTVSS”, the “polyreactivity (PSR sort gate)” value is reported as “high polyreactivity”.

In the case of “QVQLVESGGGLVQAGGSLRLSCAASGSIFFDGNAMGWYRQAPGKERELVAAISVSGGSTYYADSVKGRFTISRDYAKTTVYLQINRLKPEDTAVYDCAKYPSKSYVPGDYWGQGTQVTVSS”, the “polyreactivity (PSR sort gate)” value is reported as “low polyreactivity”.

In the case of “QVQLVESGGGLVQAGGSLRLSCAASGSIFFFNAMGWSRQAPGKERELVATISDTTDTDYADSVKGRFTISRENGKNTVYLQMNSLKPEDTAVYYCAKVKAWTEYYYWGQGTQVTVSS”, the “polyreactivity (PSR sort gate)” value is reported as “low polyreactivity”.

In the case of “QVQLVESGGGLVQAGGSLRLSCAASGSIFFFYVMGWYRPAPGKERELVAAITYSGGSTFYADSVKGRFTISRDNAKNTVYLQMNSLKPEDTAVYYCAADYGQWTPLDPYNHWGQGTQVTVSS”, the “polyreactivity (PSR sort gate)” value is reported as “low polyreactivity”.

With “QVQLVESGGGLVQAGGSLRLSCAASGSIFFFYVMGWYRQAPGKERELVAAINNGGSTNYADSVKGRFTISRDNAKNTVYLQMNSLKPEDTAVYYCAADSITSKNQGLDYDYWGQGTQVTVSS” the “polyreactivity (PSR sort gate)” value was “low polyreactivity”.

In the case of “QVQLVESGGGLVQAGGSLRLSCAASGSIFFGYAMGWYRPAPGKERELVAAISSDGSTYYADSVKGRFTISRDNAKNTVYLQMNSLKPEDTAVYYCNAEQAIFYWYATVTYDYWGQGTQVTVSS”, the “polyreactivity (PSR sort gate)” value is reported as “low polyreactivity”.

In the case of “QVQLVESGGGLVQAGGSLRLSCAASGSIFFIYAMGWYRQAPGTERELVATITSGGSTYYADSVKGRFTISRDNAKNTVYLQMNSLKPEDTAVYYCAVDEYYAFDYWGQGTQVTVSS”, the “polyreactivity (PSR sort gate)” value is reported as “low polyreactivity”.

For “QVQLVESGGGLVQAGGSLRLSCAASGSIFFKYAMGWYRQAPGKERELVASITRGGRTYYADSVKGRFTISRDNAKNTVYLQMNSLKPEDTAVYYCNKRTVWKHDYWGQGTQVTVSS”, the “polyreactivity (PSR sort gate)” value was “high polyreactivity”.

For “QVQLVESGGGLVQAGGSLRLSCAASGSIFFLYAMGWSRQAPGKEWELVAAISRTGSTYADSVKGRFTISRDNAKNTVYLQMNSLKPEDTAVYYCADEYRYYWYGTMNYWGQGTQVTVSS”, the “polyreactivity (PSR sort gate)” value was “low polyreactivity”.

In the case of “QVQLVESGGGLVQAGGSLRLSCAASGSIFFLYAMGWYRQAPGKEREFVAAITGTADSTYYADSVKGRFTISRDDAKNTVYLQMNSLKPEDTAVYYCATDYWSSVKLDDYWGQGTQVTVSS”, the “polyreactivity (PSR sort gate)” value is reported as “low polyreactivity”.

With “QVQLVESGGGLVQAGGSLRLSCAASGSIFFRYAMGWYRQAPGKERELVAGITYSSGSSTYADSVKGRFTISRHNAKNTVYLQMNSLKPEDTAVYYCAAAYRFPGNRYDYWGQGTQVTVSS” the “polyreactivity (PSR sort gate)” value was “low polyreactivity”.

With “QVQLVESGGGLVQAGGSLRLSCAASGSIFFRYTMGWYRQAPGKERELVAAITGSGGSTYYADSVKGRFTISRDNAKNTVYLQMNSLKPEDTAVYYCARPGWGRYEYWGQGTQVTVSS” the “polyreactivity (PSR sort gate)” value was “high polyreactivity”.

In the case of “QVQLVESGGGLVQAGGSLRLSCAASGSIFFSNAMGGYRQAPGKERELVAAITSTGGSTYYADSVKGRFTISRDNAKNTGYLQMNSLKPEDTAVYYCAAASRRGYYYWGQGTQVTVSS”, the “polyreactivity (PSR sort gate)” value is reported as “high polyreactivity”.

In the case of “QVQLVESGGGLVQAGGSLRLSCAASGSIFFSSAMGWSRQEPGKERELVAAISSGASTYYADSVKGRFTISRDNAKNTVYLQMNSLKPEDTAVYYCAARGYRLVPVDFYYWGQGTQVTVSS”, the “polyreactivity (PSR sort gate)” value is reported as “low polyreactivity”.

For “QVQLVESGGGLVQAGGSLRLSCAASGSIFFSYAMGWYRPAPGKERELVAGINWSGGSTYADSVKGRFTLSRDNAKNTVYLQINSLKPEDTAVYYCAAKYYSERSRYHYWGQGTQVTVSS”, the “polyreactivity (PSR sort gate)” value was “low polyreactivity”.

For “QVQLVESGGGLVQAGGSLRLSCAASGSIFFTYAMGWYRQAPGKERELVAGISWGGGSTHYADSVKGRFTISRDNAKNTVYLQMNSLKPEDTAVYYCARVWPYPSTEYGYTGRLYDYWGQGTQVTVSS”, the “polyreactivity (PSR sort gate)” value was “low polyreactivity”.

For “QVQLVESGGGLVQAGGSLRLSCAASGSIFFYNVMGWYRQAPGKERELVASISWRGASTYYADSVKGRFTISRDNAKNTVYLQMNSLKPEDTAVYYCAARFGSATRYQTGYYWGQGTQVTVSS”, the “polyreactivity (PSR sort gate)” value was “high polyreactivity”.

For “QVQLVESGGGLVQAGGSLRLSCAASGSIFGANAMGWYRQAPGKERELVAAISSGDSTYADSVKGRFTISRDNAKNTVYLQMNSLKPEDTAVYYCATCRYGGQGYPFYYWGQGTQVTVSS”, the “polyreactivity (PSR sort gate)” value was “low polyreactivity”.

In the case of “QVQLVESGGGLVQAGGSLRLSCAASGSIFGANTMGWYRQAPGKERELVAGITSGARTYYADSVKGRFTISRDNAKNTVYLQMNSLKPEDTAVYYCAADTWKVFGVDYWGQGTQVTVSS”, the “polyreactivity (PSR sort gate)” value is reported as “high polyreactivity”.

For “QVQLVESGGGLVQAGGSLRLSCAASGSIFGAYAMGSYRQAPGKERELVASISDGGGTYYADSVKGRFTISRDNAKNTVYLQMNSLKPEDTAVYYCAADPPKRVPGGYWGQGTQVTVSS”, the “polyreactivity (PSR sort gate)” value was “low polyreactivity”.

In the case of “QVQLVESGGGLVQAGGSLRLSCAASGSIFGAYDMGWSRQAPGKERELVASITSGDSTNYADSVTGRFTISRDNAKNTVYLQMNSLKPEDTAVYYCAADLAVAVAADYDSWGQGTQVTVSS”, the “polyreactivity (PSR sort gate)” value is reported as “low polyreactivity”.

In the case of “QVQLVESGGGLVQAGGSLRLSCAASGSIFGAYGMGWYRQAPGKEREFVAAITGRGSTTYYADSVKGRFTISRDNAKNTVYLQMTSLKPEDTAVYYCNTRYRGLYHYPMGSWGQGTQVTVSS”, the “polyreactivity (PSR sort gate)” value is reported as “high polyreactivity”.

For “QVQLVESGGGLVQAGGSLRLSCAASGSIFGAYTMGWYRQAPGKERELVAAISIGGSTNYADSVKGRFTISRDNAKNTVYLQMNSLKPEDTAVYYCAAYRQANRYGGEDYWGLGTQVTVSS”, the “polyreactivity (PSR sort gate)” value was “high polyreactivity”.

In the case of “QVQLVESGGGLVQAGGSLRLSCAASGSIFGAYTMGWYRQAPGKERELVAAITGGGITNYADSVKGRFTISRDNAKNTVYLQMNSLKPEDTAVYYCNAGYPPQTVVVGYDYWGQGTQVTVSS”, the “polyreactivity (PSR sort gate)” value is reported as “low polyreactivity”.
